In article PMC5843810, “18th European Symposium on Radiopharmacy and Radiopharmaceuticals” (EJNMMI Radiopharmacy and Chemistry, 2016):
Primed or numbered codes have the meaning given here. Side-chain parts run from the residue outwards. [ ]: non-standard residue; d: D form. PEG7′ = not defined here; Pra = C#CC[C@H](N)C(=O)O; Tz = not defined here

B1: FPyPEGCBT-c(RGDfK) (peptide)
peptide: cyclo(RGD[dF]K)
modifications: also: cysteine-modified, cysteine site not given here, FPyPEGCBT condensed with that cysteine, 18F in the tracer

Key:
[1] = biological target: RGD-recognising integrin receptors
[2] = biological target: RGD-recognising integrins; assay: standard binding assay on cells (IC50); U-87 MG and SKOV-3 cancer models; the competing ligand is not named
[3] = biological target: integrin αvβ3 receptor of αvβ3-positive melanoma tumors in C57BL/6 mice (UniProt P43406)
[4] = biological target: T1, αvβ3 integrin receptors on tumor cells, P06756; assay: real-time quantification of cell binding with Ligand Tracer; 68Ga-labelled cyclo-RGD peptides on tumor cells (AR42J and U87MG named); settings: remark: other sources report otherwise
T1 chain 1: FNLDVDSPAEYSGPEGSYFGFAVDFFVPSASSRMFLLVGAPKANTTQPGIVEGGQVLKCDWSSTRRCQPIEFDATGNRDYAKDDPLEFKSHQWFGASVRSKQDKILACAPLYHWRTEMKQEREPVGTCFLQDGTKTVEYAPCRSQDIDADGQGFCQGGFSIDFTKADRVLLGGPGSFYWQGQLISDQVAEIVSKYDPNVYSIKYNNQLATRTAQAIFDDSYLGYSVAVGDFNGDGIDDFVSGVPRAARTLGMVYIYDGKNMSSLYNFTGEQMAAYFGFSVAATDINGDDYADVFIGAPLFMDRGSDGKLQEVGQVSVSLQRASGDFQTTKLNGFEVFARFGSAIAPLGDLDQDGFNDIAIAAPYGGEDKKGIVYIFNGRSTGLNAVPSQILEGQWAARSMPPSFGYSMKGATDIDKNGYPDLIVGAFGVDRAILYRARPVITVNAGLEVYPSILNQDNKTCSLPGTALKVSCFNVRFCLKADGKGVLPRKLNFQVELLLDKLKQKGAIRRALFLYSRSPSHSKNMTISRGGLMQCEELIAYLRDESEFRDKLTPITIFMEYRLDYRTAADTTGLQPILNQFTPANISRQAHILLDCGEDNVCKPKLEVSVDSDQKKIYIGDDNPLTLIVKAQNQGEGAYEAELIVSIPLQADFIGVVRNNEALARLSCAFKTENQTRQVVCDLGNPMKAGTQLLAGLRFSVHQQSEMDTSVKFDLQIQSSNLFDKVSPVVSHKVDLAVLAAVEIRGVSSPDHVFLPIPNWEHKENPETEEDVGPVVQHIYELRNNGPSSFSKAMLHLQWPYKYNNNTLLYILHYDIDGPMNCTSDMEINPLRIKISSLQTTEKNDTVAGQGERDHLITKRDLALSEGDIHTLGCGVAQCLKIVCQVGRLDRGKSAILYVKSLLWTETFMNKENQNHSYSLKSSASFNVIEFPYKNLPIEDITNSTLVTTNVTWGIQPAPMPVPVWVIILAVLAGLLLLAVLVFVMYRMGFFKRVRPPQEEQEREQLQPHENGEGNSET
T1 chain 2: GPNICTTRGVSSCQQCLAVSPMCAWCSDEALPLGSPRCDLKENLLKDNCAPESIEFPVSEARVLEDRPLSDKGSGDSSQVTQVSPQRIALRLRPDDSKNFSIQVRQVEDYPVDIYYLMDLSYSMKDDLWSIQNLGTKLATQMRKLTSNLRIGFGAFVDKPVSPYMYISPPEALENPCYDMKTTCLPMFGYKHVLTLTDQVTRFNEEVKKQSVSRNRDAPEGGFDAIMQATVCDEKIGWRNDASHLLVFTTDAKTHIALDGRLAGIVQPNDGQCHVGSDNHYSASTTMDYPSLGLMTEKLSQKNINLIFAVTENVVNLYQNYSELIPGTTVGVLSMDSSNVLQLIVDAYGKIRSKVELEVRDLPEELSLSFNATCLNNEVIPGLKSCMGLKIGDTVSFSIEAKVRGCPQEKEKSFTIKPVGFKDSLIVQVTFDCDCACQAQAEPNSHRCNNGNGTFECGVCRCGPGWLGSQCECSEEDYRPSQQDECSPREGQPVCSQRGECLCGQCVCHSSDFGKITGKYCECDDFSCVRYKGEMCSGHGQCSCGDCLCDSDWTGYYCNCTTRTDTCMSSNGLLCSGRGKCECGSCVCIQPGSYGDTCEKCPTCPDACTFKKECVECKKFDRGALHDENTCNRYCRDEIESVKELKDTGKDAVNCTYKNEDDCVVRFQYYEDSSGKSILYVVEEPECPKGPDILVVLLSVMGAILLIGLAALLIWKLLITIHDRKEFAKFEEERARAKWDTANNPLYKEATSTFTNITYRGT

Binder	IC50 [2] [nM]	tumor uptake in C57BL/6 mice bearing αvβ3-positive melanoma tumors, maximum at 30 min p.i. (30, 60, 180 min); reduced to 50-60% by cold cRGDfK peptide [3] [%ID/g]	also measured
B1	3080		tumour uptake 1 h after injection in mice bearing subcutaneous SKOV-3 tumours [1]: 2.4 %ID/g; tumour uptake 1 h after injection in mice bearing subcutaneous U-87 MG tumours [1]: 2.9 %ID/g
cyclo(RGD[dF]K) (not fully specified (residue 5); also: 99mTc(CO)3 complex) [99mTc(CO)3-Pra-Tz-CH2-cRGDfK]		3.01	
cyclo(RGD[dF]K([PEG7′-Tz-Pra])) (reading uncertain; also: 99mTc(CO)3 complex) [99mTc(CO)3-Pra-Tz-PEG7-cRGDfK]		4.11	
cyclo(RGD[dF]V) [control c(RGDfV) peptide]	600		
cyclo(RGD[dF]K) (also: two c(RGDfK) copies on a Glu core, DOTA chelator, 68Ga label) [68Ga-DOTA-E-[c(RGDfK)2]]			retention on cells [4]: < 58%
